# According to patent US20190338009A1 (ZEALAND PHARMA A S, published 2019):
# Square brackets hold non-standard residues; d marks the D form. Aib = CC(C)(N)C(=O)O
# T1: human GLP-2 receptor (hGLP2-R) (human, UniProt O95838 1-553)
# T1 sequence (looked up): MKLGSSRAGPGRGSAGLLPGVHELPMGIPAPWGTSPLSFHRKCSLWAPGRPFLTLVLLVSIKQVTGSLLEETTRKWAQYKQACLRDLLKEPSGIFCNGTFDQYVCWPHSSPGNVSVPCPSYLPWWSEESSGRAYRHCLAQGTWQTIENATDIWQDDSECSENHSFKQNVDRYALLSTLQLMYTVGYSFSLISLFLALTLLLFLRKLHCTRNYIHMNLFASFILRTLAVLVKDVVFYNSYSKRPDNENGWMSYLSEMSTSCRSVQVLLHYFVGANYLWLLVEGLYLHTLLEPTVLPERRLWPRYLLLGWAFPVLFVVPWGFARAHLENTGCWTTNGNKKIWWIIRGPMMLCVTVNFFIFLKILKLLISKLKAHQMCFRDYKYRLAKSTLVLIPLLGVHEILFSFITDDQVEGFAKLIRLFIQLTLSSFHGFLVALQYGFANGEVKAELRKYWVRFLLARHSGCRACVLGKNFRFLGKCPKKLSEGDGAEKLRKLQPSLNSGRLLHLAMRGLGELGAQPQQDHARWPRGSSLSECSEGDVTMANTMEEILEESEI
# B1: Compound 24 (peptide)
# peptide: H-H[Aib]EGSFTSELATILDEQAARDFIAWLQAHKITD-OH
# SMILES: CC[C@H](C)[C@H](NC(=O)[C@H](Cc1ccccc1)NC(=O)[C@H](CC(=O)O)NC(=O)[C@H](CCCNC(=N)N)NC(=O)[C@H](C)NC(=O)[C@H](C)NC(=O)[C@H](CCC(N)=O)NC(=O)[C@H](CCC(=O)O)NC(=O)[C@H](CC(=O)O)NC(=O)[C@H](CC(C)C)NC(=O)[C@@H](NC(=O)[C@@H](NC(=O)[C@H](C)NC(=O)[C@H](CC(C)C)NC(=O)[C@H](CCC(=O)O)NC(=O)[C@H](CO)NC(=O)[C@@H](NC(=O)[C@H](Cc1ccccc1)NC(=O)[C@H](CO)NC(=O)CNC(=O)[C@H](CCC(=O)O)NC(=O)C(C)(C)NC(=O)[C@@H](N)Cc1c[nH]cn1)[C@@H](C)O)[C@@H](C)O)[C@@H](C)CC)C(=O)N[C@@H](C)C(=O)N[C@@H](Cc1c[nH]c2ccccc12)C(=O)N[C@@H](CC(C)C)C(=O)N[C@@H](CCC(N)=O)C(=O)N[C@@H](C)C(=O)N[C@@H](Cc1c[nH]cn1)C(=O)N[C@@H](CCCCN)C(=O)N[C@H](C(=O)N[C@H](C(=O)N[C@@H](CC(=O)O)C(=O)O)[C@@H](C)O)[C@@H](C)CC
# B2: Compound 26 (peptide)
# peptide: H-H[Aib]EGTFTSELATILDEQAARDFIAWLQAQKITD-OH
# SMILES: CC[C@H](C)[C@H](NC(=O)[C@H](Cc1ccccc1)NC(=O)[C@H](CC(=O)O)NC(=O)[C@H](CCCNC(=N)N)NC(=O)[C@H](C)NC(=O)[C@H](C)NC(=O)[C@H](CCC(N)=O)NC(=O)[C@H](CCC(=O)O)NC(=O)[C@H](CC(=O)O)NC(=O)[C@H](CC(C)C)NC(=O)[C@@H](NC(=O)[C@@H](NC(=O)[C@H](C)NC(=O)[C@H](CC(C)C)NC(=O)[C@H](CCC(=O)O)NC(=O)[C@H](CO)NC(=O)[C@@H](NC(=O)[C@H](Cc1ccccc1)NC(=O)[C@@H](NC(=O)CNC(=O)[C@H](CCC(=O)O)NC(=O)C(C)(C)NC(=O)[C@@H](N)Cc1c[nH]cn1)[C@@H](C)O)[C@@H](C)O)[C@@H](C)O)[C@@H](C)CC)C(=O)N[C@@H](C)C(=O)N[C@@H](Cc1c[nH]c2ccccc12)C(=O)N[C@@H](CC(C)C)C(=O)N[C@@H](CCC(N)=O)C(=O)N[C@@H](C)C(=O)N[C@@H](CCC(N)=O)C(=O)N[C@@H](CCCCN)C(=O)N[C@H](C(=O)N[C@H](C(=O)N[C@@H](CC(=O)O)C(=O)O)[C@@H](C)O)[C@@H](C)CC
# B3: Compound 1 (peptide)
# peptide: H-H[Aib]EGSFTSELATILDEQAARDFIAWLIAHKITD-OH
# SMILES: CC[C@H](C)[C@H](NC(=O)[C@H](CC(C)C)NC(=O)[C@H](Cc1c[nH]c2ccccc12)NC(=O)[C@H](C)NC(=O)[C@@H](NC(=O)[C@H](Cc1ccccc1)NC(=O)[C@H](CC(=O)O)NC(=O)[C@H](CCCNC(=N)N)NC(=O)[C@H](C)NC(=O)[C@H](C)NC(=O)[C@H](CCC(N)=O)NC(=O)[C@H](CCC(=O)O)NC(=O)[C@H](CC(=O)O)NC(=O)[C@H](CC(C)C)NC(=O)[C@@H](NC(=O)[C@@H](NC(=O)[C@H](C)NC(=O)[C@H](CC(C)C)NC(=O)[C@H](CCC(=O)O)NC(=O)[C@H](CO)NC(=O)[C@@H](NC(=O)[C@H](Cc1ccccc1)NC(=O)[C@H](CO)NC(=O)CNC(=O)[C@H](CCC(=O)O)NC(=O)C(C)(C)NC(=O)[C@@H](N)Cc1c[nH]cn1)[C@@H](C)O)[C@@H](C)O)[C@@H](C)CC)[C@@H](C)CC)C(=O)N[C@@H](C)C(=O)N[C@@H](Cc1c[nH]cn1)C(=O)N[C@@H](CCCCN)C(=O)N[C@H](C(=O)N[C@H](C(=O)N[C@@H](CC(=O)O)C(=O)O)[C@@H](C)O)[C@@H](C)CC
# B4: Compound 25 (peptide)
# peptide: H-H[Aib]EGSFTSELATILDEQAARDFIAWLIAQKITD-OH
# SMILES: CC[C@H](C)[C@H](NC(=O)[C@H](CC(C)C)NC(=O)[C@H](Cc1c[nH]c2ccccc12)NC(=O)[C@H](C)NC(=O)[C@@H](NC(=O)[C@H](Cc1ccccc1)NC(=O)[C@H](CC(=O)O)NC(=O)[C@H](CCCNC(=N)N)NC(=O)[C@H](C)NC(=O)[C@H](C)NC(=O)[C@H](CCC(N)=O)NC(=O)[C@H](CCC(=O)O)NC(=O)[C@H](CC(=O)O)NC(=O)[C@H](CC(C)C)NC(=O)[C@@H](NC(=O)[C@@H](NC(=O)[C@H](C)NC(=O)[C@H](CC(C)C)NC(=O)[C@H](CCC(=O)O)NC(=O)[C@H](CO)NC(=O)[C@@H](NC(=O)[C@H](Cc1ccccc1)NC(=O)[C@H](CO)NC(=O)CNC(=O)[C@H](CCC(=O)O)NC(=O)C(C)(C)NC(=O)[C@@H](N)Cc1c[nH]cn1)[C@@H](C)O)[C@@H](C)O)[C@@H](C)CC)[C@@H](C)CC)C(=O)N[C@@H](C)C(=O)N[C@@H](CCC(N)=O)C(=O)N[C@@H](CCCCN)C(=O)N[C@H](C(=O)N[C@H](C(=O)N[C@@H](CC(=O)O)C(=O)O)[C@@H](C)O)[C@@H](C)CC
# B5: Compound 27 (peptide)
# peptide: H-H[Aib]EGTFTSELSTILDEQAARDFIAWLHAQKITD-OH
# SMILES: CC[C@H](C)[C@H](NC(=O)[C@H](Cc1ccccc1)NC(=O)[C@H](CC(=O)O)NC(=O)[C@H](CCCNC(=N)N)NC(=O)[C@H](C)NC(=O)[C@H](C)NC(=O)[C@H](CCC(N)=O)NC(=O)[C@H](CCC(=O)O)NC(=O)[C@H](CC(=O)O)NC(=O)[C@H](CC(C)C)NC(=O)[C@@H](NC(=O)[C@@H](NC(=O)[C@H](CO)NC(=O)[C@H](CC(C)C)NC(=O)[C@H](CCC(=O)O)NC(=O)[C@H](CO)NC(=O)[C@@H](NC(=O)[C@H](Cc1ccccc1)NC(=O)[C@@H](NC(=O)CNC(=O)[C@H](CCC(=O)O)NC(=O)C(C)(C)NC(=O)[C@@H](N)Cc1c[nH]cn1)[C@@H](C)O)[C@@H](C)O)[C@@H](C)O)[C@@H](C)CC)C(=O)N[C@@H](C)C(=O)N[C@@H](Cc1c[nH]c2ccccc12)C(=O)N[C@@H](CC(C)C)C(=O)N[C@@H](Cc1c[nH]cn1)C(=O)N[C@@H](C)C(=O)N[C@@H](CCC(N)=O)C(=O)N[C@@H](CCCCN)C(=O)N[C@H](C(=O)N[C@H](C(=O)N[C@@H](CC(=O)O)C(=O)O)[C@@H](C)O)[C@@H](C)CC
# Molecular target: human glucagon-like peptide 1 receptor (GLP-1R) (human, UniProt P43220 24-463)
# Test: cell-based or functional assay
row,Binder,"EC50 GLP-1 (nM); cAMP AlphaScreen, HEK293 cells expressing human GLP-1R [nM]"
1,B1,0.042
2,B2,0.013
3,B3,0.014
4,B4,0.008
5,B5,0.12

# Molecular target: T1, human GLP-2 receptor (hGLP2-R)
# Test: cell-based or functional assay
row,Binder,"EC50 GLP-2 (nM); cAMP AlphaScreen, HEK293 cells expressing human GLP-2R [nM]"
1,B1,0.049
2,B2,0.19
3,B3,0.036
4,B4,0.062
5,B5,0.37
